Measured values taken from US20210388087A1 (Chugai, published 2021).

B1: H183/L072 VH N31G (antibody, name in Kabat numbering, V domains shown)
VH: QVQLVESGGGLVQPGRSLRLSCAASGFTFSGAWMHWVRQAPGKGLEWVAQIKDKGNAYAAYYAPSVKGRFTISRDDSKNSIYLQMNSLKTEDTAVYYCHYVHYASASTVLPAFGVDAWGQGTTVTVSS
VL: DIVMTQSPLSLPVTPGEPASISCQASQELVHMNRNTYLHWYQQKPGQAPRLLIYKVSNRFPGVPDRFSGSGSGTDFTLKISRVEAEDVGVYYCAQGTSVPFTFGQGTKLEIK
B2: H183/L072 VH N31W (antibody, name in Kabat numbering, V domains shown)
VH: QVQLVESGGGLVQPGRSLRLSCAASGFTFSWAWMHWVRQAPGKGLEWVAQIKDKGNAYAAYYAPSVKGRFTISRDDSKNSIYLQMNSLKTEDTAVYYCHYVHYASASTVLPAFGVDAWGQGTTVTVSS
VL: DIVMTQSPLSLPVTPGEPASISCQASQELVHMNRNTYLHWYQQKPGQAPRLLIYKVSNRFPGVPDRFSGSGSGTDFTLKISRVEAEDVGVYYCAQGTSVPFTFGQGTKLEIK
B3: H183/L072 VH N31H (antibody, name in Kabat numbering, V domains shown)
VH: QVQLVESGGGLVQPGRSLRLSCAASGFTFSHAWMHWVRQAPGKGLEWVAQIKDKGNAYAAYYAPSVKGRFTISRDDSKNSIYLQMNSLKTEDTAVYYCHYVHYASASTVLPAFGVDAWGQGTTVTVSS
VL: DIVMTQSPLSLPVTPGEPASISCQASQELVHMNRNTYLHWYQQKPGQAPRLLIYKVSNRFPGVPDRFSGSGSGTDFTLKISRVEAEDVGVYYCAQGTSVPFTFGQGTKLEIK
B4: H183/L072 VH N31Q (antibody, name in Kabat numbering, V domains shown)
VH: QVQLVESGGGLVQPGRSLRLSCAASGFTFSQAWMHWVRQAPGKGLEWVAQIKDKGNAYAAYYAPSVKGRFTISRDDSKNSIYLQMNSLKTEDTAVYYCHYVHYASASTVLPAFGVDAWGQGTTVTVSS
VL: DIVMTQSPLSLPVTPGEPASISCQASQELVHMNRNTYLHWYQQKPGQAPRLLIYKVSNRFPGVPDRFSGSGSGTDFTLKISRVEAEDVGVYYCAQGTSVPFTFGQGTKLEIK
B5: H183/L072 VH P100eL (antibody, name in Kabat numbering, V domains shown)
VH: QVQLVESGGGLVQPGRSLRLSCAASGFTFSNAWMHWVRQAPGKGLEWVAQIKDKGNAYAAYYAPSVKGRFTISRDDSKNSIYLQMNSLKTEDTAVYYCHYVHYASASTVLLAFGVDAWGQGTTVTVSS
VL: DIVMTQSPLSLPVTPGEPASISCQASQELVHMNRNTYLHWYQQKPGQAPRLLIYKVSNRFPGVPDRFSGSGSGTDFTLKISRVEAEDVGVYYCAQGTSVPFTFGQGTKLEIK
B6: H183/L072 VH N31L (antibody, name in Kabat numbering, V domains shown)
VH: QVQLVESGGGLVQPGRSLRLSCAASGFTFSLAWMHWVRQAPGKGLEWVAQIKDKGNAYAAYYAPSVKGRFTISRDDSKNSIYLQMNSLKTEDTAVYYCHYVHYASASTVLPAFGVDAWGQGTTVTVSS
VL: DIVMTQSPLSLPVTPGEPASISCQASQELVHMNRNTYLHWYQQKPGQAPRLLIYKVSNRFPGVPDRFSGSGSGTDFTLKISRVEAEDVGVYYCAQGTSVPFTFGQGTKLEIK
B7: H183/L072 VH P61I (antibody, name in Kabat numbering, V domains shown)
VH: QVQLVESGGGLVQPGRSLRLSCAASGFTFSNAWMHWVRQAPGKGLEWVAQIKDKGNAYAAYYAISVKGRFTISRDDSKNSIYLQMNSLKTEDTAVYYCHYVHYASASTVLPAFGVDAWGQGTTVTVSS
VL: DIVMTQSPLSLPVTPGEPASISCQASQELVHMNRNTYLHWYQQKPGQAPRLLIYKVSNRFPGVPDRFSGSGSGTDFTLKISRVEAEDVGVYYCAQGTSVPFTFGQGTKLEIK
B8: H183/L072 VH N31T (antibody, name in Kabat numbering, V domains shown)
VH: QVQLVESGGGLVQPGRSLRLSCAASGFTFSTAWMHWVRQAPGKGLEWVAQIKDKGNAYAAYYAPSVKGRFTISRDDSKNSIYLQMNSLKTEDTAVYYCHYVHYASASTVLPAFGVDAWGQGTTVTVSS
VL: DIVMTQSPLSLPVTPGEPASISCQASQELVHMNRNTYLHWYQQKPGQAPRLLIYKVSNRFPGVPDRFSGSGSGTDFTLKISRVEAEDVGVYYCAQGTSVPFTFGQGTKLEIK
B9: H183/L072 VH N31I (antibody, name in Kabat numbering, V domains shown)
VH: QVQLVESGGGLVQPGRSLRLSCAASGFTFSIAWMHWVRQAPGKGLEWVAQIKDKGNAYAAYYAPSVKGRFTISRDDSKNSIYLQMNSLKTEDTAVYYCHYVHYASASTVLPAFGVDAWGQGTTVTVSS
VL: DIVMTQSPLSLPVTPGEPASISCQASQELVHMNRNTYLHWYQQKPGQAPRLLIYKVSNRFPGVPDRFSGSGSGTDFTLKISRVEAEDVGVYYCAQGTSVPFTFGQGTKLEIK
B10: H183/L072 VH P61A (antibody, name in Kabat numbering, V domains shown)
VH: QVQLVESGGGLVQPGRSLRLSCAASGFTFSNAWMHWVRQAPGKGLEWVAQIKDKGNAYAAYYAASVKGRFTISRDDSKNSIYLQMNSLKTEDTAVYYCHYVHYASASTVLPAFGVDAWGQGTTVTVSS
VL: DIVMTQSPLSLPVTPGEPASISCQASQELVHMNRNTYLHWYQQKPGQAPRLLIYKVSNRFPGVPDRFSGSGSGTDFTLKISRVEAEDVGVYYCAQGTSVPFTFGQGTKLEIK
B11: H183/L072 VH N31V (antibody, name in Kabat numbering, V domains shown)
VH: QVQLVESGGGLVQPGRSLRLSCAASGFTFSVAWMHWVRQAPGKGLEWVAQIKDKGNAYAAYYAPSVKGRFTISRDDSKNSIYLQMNSLKTEDTAVYYCHYVHYASASTVLPAFGVDAWGQGTTVTVSS
VL: DIVMTQSPLSLPVTPGEPASISCQASQELVHMNRNTYLHWYQQKPGQAPRLLIYKVSNRFPGVPDRFSGSGSGTDFTLKISRVEAEDVGVYYCAQGTSVPFTFGQGTKLEIK
B12: H183/L072 VH N31Y (antibody, name in Kabat numbering, V domains shown)
VH: QVQLVESGGGLVQPGRSLRLSCAASGFTFSYAWMHWVRQAPGKGLEWVAQIKDKGNAYAAYYAPSVKGRFTISRDDSKNSIYLQMNSLKTEDTAVYYCHYVHYASASTVLPAFGVDAWGQGTTVTVSS
VL: DIVMTQSPLSLPVTPGEPASISCQASQELVHMNRNTYLHWYQQKPGQAPRLLIYKVSNRFPGVPDRFSGSGSGTDFTLKISRVEAEDVGVYYCAQGTSVPFTFGQGTKLEIK
B13: H183/L072 VH P100eA (antibody, name in Kabat numbering, V domains shown)
VH: QVQLVESGGGLVQPGRSLRLSCAASGFTFSNAWMHWVRQAPGKGLEWVAQIKDKGNAYAAYYAPSVKGRFTISRDDSKNSIYLQMNSLKTEDTAVYYCHYVHYASASTVLAAFGVDAWGQGTTVTVSS
VL: DIVMTQSPLSLPVTPGEPASISCQASQELVHMNRNTYLHWYQQKPGQAPRLLIYKVSNRFPGVPDRFSGSGSGTDFTLKISRVEAEDVGVYYCAQGTSVPFTFGQGTKLEIK
B14: H183/L072 VH P100eI (antibody, name in Kabat numbering, V domains shown)
VH: QVQLVESGGGLVQPGRSLRLSCAASGFTFSNAWMHWVRQAPGKGLEWVAQIKDKGNAYAAYYAPSVKGRFTISRDDSKNSIYLQMNSLKTEDTAVYYCHYVHYASASTVLIAFGVDAWGQGTTVTVSS
VL: DIVMTQSPLSLPVTPGEPASISCQASQELVHMNRNTYLHWYQQKPGQAPRLLIYKVSNRFPGVPDRFSGSGSGTDFTLKISRVEAEDVGVYYCAQGTSVPFTFGQGTKLEIK
B15: H183/L072 VH N31P (antibody, name in Kabat numbering, V domains shown)
VH: QVQLVESGGGLVQPGRSLRLSCAASGFTFSPAWMHWVRQAPGKGLEWVAQIKDKGNAYAAYYAPSVKGRFTISRDDSKNSIYLQMNSLKTEDTAVYYCHYVHYASASTVLPAFGVDAWGQGTTVTVSS
VL: DIVMTQSPLSLPVTPGEPASISCQASQELVHMNRNTYLHWYQQKPGQAPRLLIYKVSNRFPGVPDRFSGSGSGTDFTLKISRVEAEDVGVYYCAQGTSVPFTFGQGTKLEIK
B16: H183/L072 VH P61M (antibody, name in Kabat numbering, V domains shown)
VH: QVQLVESGGGLVQPGRSLRLSCAASGFTFSNAWMHWVRQAPGKGLEWVAQIKDKGNAYAAYYAMSVKGRFTISRDDSKNSIYLQMNSLKTEDTAVYYCHYVHYASASTVLPAFGVDAWGQGTTVTVSS
VL: DIVMTQSPLSLPVTPGEPASISCQASQELVHMNRNTYLHWYQQKPGQAPRLLIYKVSNRFPGVPDRFSGSGSGTDFTLKISRVEAEDVGVYYCAQGTSVPFTFGQGTKLEIK
B17: H183/L072 VH P100eM (antibody, name in Kabat numbering, V domains shown)
VH: QVQLVESGGGLVQPGRSLRLSCAASGFTFSNAWMHWVRQAPGKGLEWVAQIKDKGNAYAAYYAPSVKGRFTISRDDSKNSIYLQMNSLKTEDTAVYYCHYVHYASASTVLMAFGVDAWGQGTTVTVSS
VL: DIVMTQSPLSLPVTPGEPASISCQASQELVHMNRNTYLHWYQQKPGQAPRLLIYKVSNRFPGVPDRFSGSGSGTDFTLKISRVEAEDVGVYYCAQGTSVPFTFGQGTKLEIK
B18: H183/L072 VH P61L (antibody, name in Kabat numbering, V domains shown)
VH: QVQLVESGGGLVQPGRSLRLSCAASGFTFSNAWMHWVRQAPGKGLEWVAQIKDKGNAYAAYYALSVKGRFTISRDDSKNSIYLQMNSLKTEDTAVYYCHYVHYASASTVLPAFGVDAWGQGTTVTVSS
VL: DIVMTQSPLSLPVTPGEPASISCQASQELVHMNRNTYLHWYQQKPGQAPRLLIYKVSNRFPGVPDRFSGSGSGTDFTLKISRVEAEDVGVYYCAQGTSVPFTFGQGTKLEIK
B19: H183/L072 VH N31S (antibody, name in Kabat numbering, V domains shown)
VH: QVQLVESGGGLVQPGRSLRLSCAASGFTFSSAWMHWVRQAPGKGLEWVAQIKDKGNAYAAYYAPSVKGRFTISRDDSKNSIYLQMNSLKTEDTAVYYCHYVHYASASTVLPAFGVDAWGQGTTVTVSS
VL: DIVMTQSPLSLPVTPGEPASISCQASQELVHMNRNTYLHWYQQKPGQAPRLLIYKVSNRFPGVPDRFSGSGSGTDFTLKISRVEAEDVGVYYCAQGTSVPFTFGQGTKLEIK
B20: H183/L072 VH N53Y (antibody, name in Kabat numbering, V domains shown)
VH: QVQLVESGGGLVQPGRSLRLSCAASGFTFSNAWMHWVRQAPGKGLEWVAQIKDKGYAYAAYYAPSVKGRFTISRDDSKNSIYLQMNSLKTEDTAVYYCHYVHYASASTVLPAFGVDAWGQGTTVTVSS
VL: DIVMTQSPLSLPVTPGEPASISCQASQELVHMNRNTYLHWYQQKPGQAPRLLIYKVSNRFPGVPDRFSGSGSGTDFTLKISRVEAEDVGVYYCAQGTSVPFTFGQGTKLEIK

target: T1, Human CD137 ECD (human); test: single mutant vs template dBBDu183H
T1 construct: also called 4-1BB
T1 sequence (chain, as listed by the source limits assumed): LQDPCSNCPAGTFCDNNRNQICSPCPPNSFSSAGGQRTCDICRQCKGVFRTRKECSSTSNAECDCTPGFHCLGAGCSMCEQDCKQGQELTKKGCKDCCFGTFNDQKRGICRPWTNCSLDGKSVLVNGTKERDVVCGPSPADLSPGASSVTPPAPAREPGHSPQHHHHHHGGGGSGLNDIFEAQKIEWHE

B1 and B2 are the same in “fold change of affinity” value: 0.3 fold for the first, 0.3 fold for the second.

Compared with B3, B4 is lower in “fold change of affinity” value: 0.4 fold for the first, 0.2 fold for the second.

First: B5
Second: B6
The “fold change of affinity” value of the first is lower: 0 fold for the first, 0.3 fold for the second.

B7 and B8 are the same in “fold change of affinity” value: 0.5 fold for the first, 0.5 fold for the second.

First: B9
Second: B10
The “fold change of affinity” value of the first is lower: 0.3 fold for the first, 0.8 fold for the second.

Going from B11 to B12, the “fold change of affinity” value falls from 0.2 fold to 0 fold.

Going from B13 to B14, the “fold change of affinity” value falls from 0.5 fold to 0 fold.

Going from B15 to B16, the “fold change of affinity” value rises from 0.4 fold to 0.6 fold.

First: B17
Second: B18
The “fold change of affinity” value of the first is lower: 0 fold for the first, 0.6 fold for the second.

First: B19
Second: B20
The “fold change of affinity” value of the first is higher: 0.3 fold for the first, 0 fold for the second.
